According to patent US20220363770A1 (Amgen, published 2022):

Legend:
[1] = biological target: T1, human CGRP receptor (human CRLR / human RAMP1 heterodimer) (human, UniProt Q16602 23-461; O60894 27-148); assay: cell-based or functional assay
[2] = biological target: T2, cynomolgus monkey CGRP receptor (cynomolgus monkey, UniProt A0A2K5VQ71 34-472); assay: yeast-displayed Fab, FACS, detergent-solubilized lysate of cynomolgus CGRP receptor/HEK cells vs blank cells
T2 construct: whole, on cells; Presented as detergent-solubilized lysate of HEK cells expressing the cynomolgus receptor; also called Cyno CGRP Receptor; Cynomolgus Monkey CGRP Receptor/HEK detergent-solubilized cell lysate
T2 sequence (A0A2K5VQ71 entry or part of it): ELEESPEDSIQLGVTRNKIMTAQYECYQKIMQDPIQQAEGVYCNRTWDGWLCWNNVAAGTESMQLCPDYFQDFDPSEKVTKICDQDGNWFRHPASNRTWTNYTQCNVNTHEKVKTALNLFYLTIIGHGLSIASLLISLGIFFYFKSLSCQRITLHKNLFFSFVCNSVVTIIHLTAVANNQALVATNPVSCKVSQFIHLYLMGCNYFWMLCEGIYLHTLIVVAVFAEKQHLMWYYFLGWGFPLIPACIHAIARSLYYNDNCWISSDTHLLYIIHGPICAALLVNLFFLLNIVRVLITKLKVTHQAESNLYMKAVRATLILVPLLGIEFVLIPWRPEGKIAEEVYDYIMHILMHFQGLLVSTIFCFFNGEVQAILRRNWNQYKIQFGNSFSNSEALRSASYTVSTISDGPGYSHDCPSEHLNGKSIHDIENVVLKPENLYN

[3] = biological target: T1, human CGRP receptor (human CRLR / human …); assay: yeast-displayed Fab, FACS, detergent-solubilized lysate of human CGRP receptor-expressing cells vs blank cells
[4] = biological target: T3, human CGRP receptor extracellular domain (ECD) (human, UniProt Q16602 23-138; O60894 27-117); assay: yeast-displayed Fab, FACS, 1 nM human CGRP receptor ECD
T3 construct: also called CGRP receptor ECD; human CGRP receptor ECD
T3 sequence (Q16602 23-138 limits assumed, chain 1 of 2): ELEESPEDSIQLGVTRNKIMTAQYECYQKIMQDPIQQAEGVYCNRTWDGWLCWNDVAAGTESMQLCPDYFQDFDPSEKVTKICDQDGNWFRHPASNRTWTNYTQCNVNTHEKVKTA
T3 sequence (O60894 27-117 limits assumed, chain 2 of 2): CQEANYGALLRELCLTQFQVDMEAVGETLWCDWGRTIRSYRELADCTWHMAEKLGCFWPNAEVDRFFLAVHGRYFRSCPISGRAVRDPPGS

[5] = biological target: T3, human CGRP receptor extracellular …; assay: yeast-displayed Fab, FACS, 10 nM human CGRP receptor ECD

T1 sequence (Q16602 23-461 limits assumed, chain 1 of 2): as the sequence (A0A2K5VQ71 entry or part of it) above, with N55D, V431L counted along it
T1 sequence (O60894 27-148 limits assumed, chain 2 of 2): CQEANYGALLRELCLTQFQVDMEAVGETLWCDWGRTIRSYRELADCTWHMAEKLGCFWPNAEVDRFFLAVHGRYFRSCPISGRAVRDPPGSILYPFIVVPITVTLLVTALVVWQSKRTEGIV

Row | Binder | Average IC50 (nM), cell-based cAMP assay, SK-N-MC cells, 3 nM human α-CGRP [1] | Fold-improvement over 4E4 Ab (IC50, cAMP assay) [1] | Run 1 IC50 (nM), cell-based cAMP assay, SK-N-MC cells, 3 nM human α-CGRP [1] | Run 2 IC50 (nM), cell-based cAMP assay, SK-N-MC cells, 3 nM human α-CGRP [1] | Cyno CGRP Receptor/Blank Cells Specific Binding [2] | Mutant vs. 4E4.2 Parent Specific Binding Ratio [2] | Human CGRP Receptor/Blank Cells Specific Binding [3] | Mutant vs. 4E4.2 Parent Specific Binding Ratio [3] | Mutant vs. 4E4.2 Parent B/D Ratio [4] | Normalized Binding Signal/Display Signal (B/D) [4] | Mutant vs. 4E4.2 Parent B/D Ratio [5] | Normalized Binding Signal/Display Signal (B/D) [5]
1 | anti-CGRP receptor variant antibody 01, bivalent monoclonal antibody (antibody, human IgG1, lambda, N297G, V domains shown) VH: QVQLVESGGGVVQPGRSLRLSCAASGFTFSSFGMHWVRQAPGKGLEWVAVISFDGSIKYSVDSVKGRFTISRDNSKNTLFLQMNSLRAEDTAVYYCARDRLNYYESSGYYHYKYYGMAVWGQGTTVTVSS VL: QSVLTQPPSVSAAPGQKVTISCSGSYSNIGRYSVSWYQQLPGTAPKLLIYDNNKRPSGIPDRFSGSKSGTSATLGITGLQTGDEADYYCGTWDSRLSAVVFGGGTKLTVLG | 0.14 nM | 3.9 fold | 0.13 nM | 0.14 nM | – | – | – | – | – | – | – | –
2 | 4E4.2 parental Fab, yeast-displayed (Fab, V domains shown, also called parental 4E4.2 Fab) VH: QVQLVESGGGVVQPGRSLRLSCAASGFTFSSFGMHWVRQAPGKGLEWVAVISFDGSIKYSVDSVKGRFTISRDNSKNTLFLQMNSLRAEDTAVYYCARDRLNYYESSGYYHYKYYGMAVWGQGTTVTVSS VL: QSVLTQPPSVSAAPGQKVTISCSGSSSNIGNNYVSWYQQLPGTAPKLLIYDNNKRPSGIPDRFSGSKSGTSATLGITGLQTGDEADYYCGTWDSRLSAVVFGGGTKLTVLG | – | – | – | – | 1.9 ratio | 1 fold | 8 ratio | 1 fold | – | – | – | –
3 | 4E4.2 parental antibody, bivalent monoclonal antibody (antibody, human IgG1, lambda, N297G, V domains shown) VH: QVQLVESGGGVVQPGRSLRLSCAASGFTFSSFGMHWVRQAPGKGLEWVAVISFDGSIKYSVDSVKGRFTISRDNSKNTLFLQMNSLRAEDTAVYYCARDRLNYYESSGYYHYKYYGMAVWGQGTTVTVSS VL: QSVLTQPPSVSAAPGQKVTISCSGSSSNIGNNYVSWYQQLPGTAPKLLIYDNNKRPSGIPDRFSGSKSGTSATLGITGLQTGDEADYYCGTWDSRLSAVVFGGGTKLTVLG | 0.45 nM | 1.2 fold | 0.34 nM | 0.56 nM | – | – | – | – | – | – | – | –
4 | anti-CGRP receptor variant antibody 08, bivalent monoclonal antibody (antibody, human IgG1, lambda, N297G, V domains shown) VH: QVQLVESGGGVVQPGRSLRLSCAASGFTFSSFGMHWVRQAPGKGLEWVAVISFDGSIKYSVDSVKGRFTISRDNSKNTLFLQMNSLRAEDTAVYYCARDRLNYYESSGYYHYKYYGMAVWGQGTTVTVSS VL: QSVLTQPPSVSAAPGQKVTISCSGSYSNIGWWPVSWYQQLPGTAPKLLIYDNNKRPSGIPDRFSGSKSGTSATLGITGLQTGDEADYYCGTWDSRLSAVVFGGGTKLTVLG | 0.3 nM | 1.8 fold | 0.28 nM | 0.31 nM | – | – | – | – | – | – | – | –
5 | anti-CGRP receptor variant antibody 07, bivalent monoclonal antibody (antibody, human IgG1, lambda, N297G, V domains shown) VH: QVQLVESGGGVVQPGRSLRLSCAASGFYFMTYGMHWVRQAPGKGLEWVAVISFDGSIKYSVDSVKGRFTISRDNSKNTLFLQMNSLRAEDTAVYYCARDRLNYYESSGYYHYKYYGMAVWGQGTTVTVSS VL: QSVLTQPPSVSAAPGQKVTISCSGSSSNIGNNYVSWYQQLPGTAPKLLIYDNNKRPSGIPDRFSGSKSGTSATLGITGLQTGDEADYYCGTWDSRLSAVVFGGGTKLTVLG | 0.29 nM | 1.9 fold | 0.18 nM | 0.39 nM | – | – | – | – | – | – | – | –
6 | anti-CGRP receptor variant antibody 02, bivalent monoclonal antibody (antibody, human IgG1, lambda, N297G, V domains shown) VH: QVQLVESGGGVVQPGRSLRLSCAASGFTFSSFGMHWVRQAPGKGLEWVAVISFDGSIKYSVDSVKGRFTISRDNSKNTLFLQMNSLRAEDTAVYYCARDRLNYYESSGYYHYKYYGMAVWGQGTTVTVSS VL: QSVLTQPPSVSAAPGQKVTISCSGSRSNIGIKAVSWYQQLPGTAPKLLIYDNNKRPSGIPDRFSGSKSGTSATLGITGLQTGDEADYYCGTWDSRLSAVVFGGGTKLTVLG | 0.12 nM | 4.6 fold | 0.1 nM | 0.13 nM | – | – | – | – | – | – | – | –
7 | anti-CGRP receptor variant antibody 04, bivalent monoclonal antibody (antibody, human IgG1, lambda, N297G, V domains shown) VH: QVQLVESGGGVVQPGRSLRLSCAASGFTFSSFGMHWVRQAPGKGLEWVAVISFDGSIKYSVDSVKGRFTISRDNSKNTLFLQMNSLRAEDTAVYYCARDRLNYYRSFGYYGYHYYGMAVWGQGTTVTVSS VL: QSVLTQPPSVSAAPGQKVTISCSGSSSNIGNNYVSWYQQLPGTAPKLLIYDNNKRPSGIPDRFSGSKSGTSATLGITGLQTGDEADYYCGTWDSRLSAVVFGGGTKLTVLG | 0.17 nM | 3.1 fold | 0.14 nM | 0.21 nM | – | – | – | – | – | – | – | –
8 | anti-CGRP receptor variant antibody 09, bivalent monoclonal antibody (antibody, human IgG1, lambda, N297G, V domains shown) VH: QVQLVESGGGVVQPGRSLRLSCAASGFTFSSFGMHWVRQAPGKGLEWVAVISFAGEIDYYVDSVKGRFTISRDNSKNTLFLQMNSLRAEDTAVYYCARDRLNYYESSGYYHYKYYGMAVWGQGTTVTVSS VL: QSVLTQPPSVSAAPGQKVTISCSGSSSNIGNNYVSWYQQLPGTAPKLLIYDNNKRPSGIPDRFSGSKSGTSATLGITGLQTGDEADYYCGTWDSRLSAVVFGGGTKLTVLG | 0.86 nM | 0.6 fold | 0.73 nM | 1 nM | – | – | – | – | – | – | – | –
9 | anti-CGRP receptor variant antibody 05, bivalent monoclonal antibody (antibody, human IgG1, lambda, N297G, V domains shown) VH: QVQLVESGGGVVQPGRSLRLSCAASGFTFSSFGMHWVRQAPGKGLEWVAVISFDGSIKYSVDSVKGRFTISRDNSKNTLFLQMNSLRAEDTAVYYCARDRLNYYESSGYYHYKYYGMAVWGQGTTVTVSS VL: QSVLTQPPSVSAAPGQKVTISCSGSFSNIGRSTVSWYQQLPGTAPKLLIYDNRWRAGGIPDRFSGSKSGTSATLGITGLQTGDEADYYCGTWDYQWKAVVFGGGTKLTVLG | 0.2 nM | 2.7 fold | 0.15 nM | 0.25 nM | – | – | – | – | – | – | – | –
10 | anti-CGRP receptor variant 05, yeast-displayed Fab (Fab, V domains shown, also called Variant Ab ID 05) VH: QVQLVESGGGVVQPGRSLRLSCAASGFTFSSFGMHWVRQAPGKGLEWVAVISFDGSIKYSVDSVKGRFTISRDNSKNTLFLQMNSLRAEDTAVYYCARDRLNYYESSGYYHYKYYGMAVWGQGTTVTVSS VL: QSVLTQPPSVSAAPGQKVTISCSGSFSNIGRSTVSWYQQLPGTAPKLLIYDNRWRAGGIPDRFSGSKSGTSATLGITGLQTGDEADYYCGTWDYQWKAVVFGGGTKLTVLG | – | – | – | – | 5.2 ratio | 2.7 fold | 24.4 ratio | 3.1 fold | 6.7 fold | 0.82 ratio | 24.6 fold | 3.78 ratio
11 | anti-CGRP receptor variant 12, yeast-displayed Fab (Fab, V domains shown, also called Variant Ab ID 12) VH: QVQLVESGGGVVQPGRSLRLSCAASGFTFSSFGMHWVRQAPGKGLEWVAVISFDGSIKYSVDSVKGRFTISRDNSKNTLFLQMNSLRAEDTAVYYCARDRLNYYESSGYYHYKYYGMAVWGQGTTVTVSS VL: QSVLTQPPSVSAAPGQKVTISCSGSRSNIGRYSVSWYQQLPGTAPKLLIYDNRYRAQGIPDRFSGSKSGTSATLGITGLQTGDEADYYCGTWDWATTSVVFGGGTKLTVLG | – | – | – | – | 10.3 ratio | 5.4 fold | – | – | 2.8 fold | 0.35 ratio | 9.7 fold | 1.5 ratio
